B1: GLP1(A8G/G22E/R36G)-Fn8-p246-ACRP30 (ligand)
chain: HGEGTFTSDVSSYLEEQAAKEFIAWLVKGGGSGGGSGGGSGGGSGGGSGSGGAVPPPTDLRFTNIGPDTMRVTWAPPPSIDLTNFLVRYSPVKNEEDVAELSISPSDNAVVLTNLLPGTEYVVSVSSVYEQHESTPLRGRQKTGGGGSGGGSGSGSESGSGGGSTSSGTGSETESPGSGSESGSGPSSAGSGSGSESGSGSGSSGPGSTGGSGSESGSGPGSSGTGGTATGSGSESGSGPGSSGPGSTGSGSGSESGSGSGSSGTGSTGGSGSESGSGPGSPRPGSTGTGSGSESGSGPGSSERGSAGGSGSESGSGTSESSASGSTGGSGSESGSGSESGSGSGSESGSGPESPGSGGSGSESGSGTSGSTGSGSESGSGGGSGGGSGGVYRSAFSVGLETRVTVPNVPIRFTKIFYNQQNHYDGSTGKFYCNIPGLYYFSYHITVYMKDVKVSLFKKDKAVLFTYDQYQEKNVDQASGSVLLHLEVGDQVWLQVYGDGDHNGLYADNVNDSTFTGFLLYHDTN
B2: GLP-1-Fn8-COL18NC1 (ligand)
chain: HAEGTFTSDVSSYLEGQAAKEFIAWLVKGRGGGGSGGGGSAVPPPTDLRFTNIGPDTMRVTWAPPPSIDLTNFLVRYSPVKNEEDVAELSISPSDNAVVLTNLLPGTEYVVSVSSVYEQHESTPLRGRQKTGGGGSGGGASSGVRLWATRQAMLGQVHEVPEGWLIFVAEQEELYVRVQNGFRKVQLEARTPLPRG
B3: GLP-1(A8S/G22E)-Fn8-COL18NC1 (ligand)
chain: B2 chain with A2S, G16E
B4: GLP-1(A8G/G22E)-Fn8-COL18NC1 (ligand)
chain: B2 chain with A2G, G16E
B5: GLP-1(A8G/G22E/R36G)-Fn8-COL18NC1 (ligand)
chain: B2 chain with A2G, G16E, R30G
B6: GLP-1(A8V/G22E)-Fn8-COL18NC1 (ligand)
chain: B2 chain with A2V, G16E
B7: GLP-1(A8G/G22E)-Fn8-p246-COL18NC1 (ligand)
chain: HGEGTFTSDVSSYLEEQAAKEFIAWLVKGRGSGGGSGGGSGGGSGGGSGSGGAVPPPTDLRFTNIGPDTMRVTWAPPPSIDLTNFLVRYSPVKNEEDVAELSISPSDNAVVLTNLLPGTEYVVSVSSVYEQHESTPLRGRQKTGGGGSGGGSGSGSESGSGGGSTSSGTGSETESPGSGSESGSGPSSAGSGSGSESGSGSGSSGPGSTGGSGSESGSGPGSSGTGGTATGSGSESGSGPGSSGPGSTGSGSGSESGSGSGSSGTGSTGGSGSESGSGPGSPRPGSTGTGSGSESGSGPGSSERGSAGGSGSESGSGTSESSASGSTGGSGSESGSGSESGSGSGSESGSGPESPGSGGSGSESGSGTSGSTGSGSESGSGGGSGGGSGGGASSGVRLWATRQAMLGQVHEVPEGWLIFVAEQEELYVRVQNGFRKVQLEARTPLPRG
B8: GLP-1(A8S/G22E)-Fn8-p246-COL18NC1 (ligand)
chain: B7 chain with G2S
B9: GLP-1(A8G/G22E/R36S)-Fn8-p246-COL18NC1 (ligand)
chain: B7 chain with R30S
B10: GLP-1(A8V/G22E)-Fn8-p246-COL18NC1 (ligand)
chain: B7 chain with G2V
B11: GLP-1(A8G/G22E/R36G)-Fn8-p246-COL18NC1 (ligand)
chain: B7 chain with R30G
B12: GLP-1-Fn7-COL18NC1 (ligand)
chain: HAEGTFTSDVSSYLEGQAAKEFIAWLVKGRGGGGSGGGGTPLSPPTNLHLEANPDTGVLTVSWERSTTPDITGYRITTTPTNGQQGNSLEEVVHADQSSCTFDNLSPGLEYNVSVYTVKDDKESVPISDTIIPAGGGSGGGASSGVRLWATRQAMLGQVHEVPEGWLIFVAEQEELYVRVQNGFRKVQLEARTPLPRG
B13: GLP-1(A8G/G22E/R36G)-Fn8-p285-COL18NC1 (ligand)
chain: HGEGTFTSDVSSYLEEQAAKEFIAWLVKGGGSGGGSGGGSGGGSGGGSGSGGAVPPPTDLRFTNIGPDTMRVTWAPPPSIDLTNFLVRYSPVKNEEDVAELSISPSDNAVVLTNLLPGTEYVVSVSSVYEQHESTPLRGRQKTGGGGSGGGSGSGSESGSGGGSTSSGTGSETESPGSGSESGSGPSSAGSGSGSESGSGSGSSGPGSTGGSGSESGSGPGSSGTGGTATGSGSESGSGPGSSGPGSTGSGSGSESGSGSGSSGTGSTGGSGSESGSGPGSPRPGSTGTGSGSESGSGPGSSERGSAGGSGSESGSGTSESSASGSTGGSGSESGSGSESGSGSGSESGSGPESPGSGGSGSESGSGTSGSTGSGSESGSGPGSSGPGSTGSGSGSESGSGSGSSGTGSTGGSGSESGSGGGSGGGSGGGASSGVRLWATRQAMLGQVHEVPEGWLIFVAEQEELYVRVQNGFRKVQLEARTPLPRG
B14: GLP-1(A8G/G22E/R36G)-Fn8-p245-COL18NC1 (ligand)
chain: HGEGTFTSDVSSYLEEQAAKEFIAWLVKGGGSGGGSGGGSGGGSGGGSGSGGAVPPPTDLRFTNIGPDTMRVTWAPPPSIDLTNFLVRYSPVKNEEDVAELSISPSDNAVVLTNLLPGTEYVVSVSSVYEQHESTPLRGRQKTGGGGSGGGSGSGSTSESGGSTSSGTGSETESPGSGSESTSGPSSAGSGSTSESGSGSGSSGPGSTGGSTSGSESGPGSSGTGGTATGSESGSTSGPGSSGPGSTGSGSTSESGSGSGSSGTGSTGGSESGSTSGPGSPRPGSTGTGSTSGSESGPGSSERGSAGGSESTSGSGTSESSASGSTGGSTSGSESGSESGSGSTSESGSGPESPGSGGSGSTSESGTSGSTGSESTSGSGGGSGGGSGGGASSGVRLWATRQAMLGQVHEVPEGWLIFVAEQEELYVRVQNGFRKVQLEARTPLPRG
B15: GLP-1(A8G/G22E/R36G)-Fn8-p246-COL15NC1 (ligand)
chain: HGEGTFTSDVSSYLEEQAAKEFIAWLVKGGGSGGGSGGGSGGGSGGGSGSGGAVPPPTDLRFTNIGPDTMRVTWAPPPSIDLTNFLVRYSPVKNEEDVAELSISPSDNAVVLTNLLPGTEYVVSVSSVYEQHESTPLRGRQKTGGGGSGGGSGSGSESGSGGGSTSSGTGSETESPGSGSESGSGPSSAGSGSGSESGSGSGSSGPGSTGGSGSESGSGPGSSGTGGTATGSGSESGSGPGSSGPGSTGSGSGSESGSGSGSSGTGSTGGSGSESGSGPGSPRPGSTGTGSGSESGSGPGSSERGSAGGSGSESGSGTSESSASGSTGGSGSESGSGSESGSGSGSESGSGPESPGSGGSGSESGSGTSGSTGSGSESGSGGGSGGGSGGNLVTAFSNMDDMLQKAHLVIEGTFIYLRDSTEFFIRVRDGWKKLQLGELIPIPA
B16: GLP-1(A8G/G22E/R36G)-TNCfn3-p246-COL18NC1 (ligand)
chain: HGEGTFTSDVSSYLEEQAAKEFIAWLVKGGGSGGGSGGGSGGGSGGGSGSGGRLDAPSQIEVKDVTDTTALITWFKPLAEIDGIELTYGIKDVPGDRTTIDLTEDENQYSIGNLKPDTEYEVSLISRRGDMSSNPAKETFTTGGGGSGGGSGSGSESGSGGGSTSSGTGSETESPGSGSESGSGPSSAGSGSGSESGSGSGSSGPGSTGGSGSESGSGPGSSGTGGTATGSGSESGSGPGSSGPGSTGSGSGSESGSGSGSSGTGSTGGSGSESGSGPGSPRPGSTGTGSGSESGSGPGSSERGSAGGSGSESGSGTSESSASGSTGGSGSESGSGSESGSGSGSESGSGPESPGSGGSGSESGSGTSGSTGSGSESGSGGGSGGGSGGGASSGVRLWATRQAMLGQVHEVPEGWLIFVAEQEELYVRVQNGFRKVQLEARTPLPRG
B17: GLP-1(A8G/G22E/R36G)-Fn8-p246-COL19NC2 (ligand)
chain: HGEGTFTSDVSSYLEEQAAKEFIAWLVKGGGSGGGSGGGSGGGSGGGSGSGGAVPPPTDLRFTNIGPDTMRVTWAPPPSIDLTNFLVRYSPVKNEEDVAELSISPSDNAVVLTNLLPGTEYVVSVSSVYEQHESTPLRGRQKTGGGGSGGGSGSGSESGSGGGSTSSGTGSETESPGSGSESGSGPSSAGSGSGSESGSGSGSSGPGSTGGSGSESGSGPGSSGTGGTATGSGSESGSGPGSSGPGSTGSGSGSESGSGSGSSGTGSTGGSGSESGSGPGSPRPGSTGTGSGSESGSGPGSSERGSAGGSGSESGSGTSESSASGSTGGSGSESGSGSESGSGSGSESGSGPESPGSGGSGSESGSGTSGSTGSGSESGSGGGSGGGSGGGIPADAVSFEEIKKYINQEVLRIFEERMAVFLSQLKLPAAMLAAQAYGRP
B18: GLP-1(A8G/G22E/R36G)-Fn8-p271-COL18NC1 (ligand)
chain: HGEGTFTSDVSSYLEEQAAKEFIAWLVKGGGSGGGSGGGSGGGSGGGSGSGGAVPPPTDLRFTNIGPDTMRVTWAPPPSIDLTNFLVRYSPVKNEEDVAELSISPSDNAVVLTNLLPGTEYVVSVSSVYEQHESTPLRGRQKTGGGGSGGGSGGSGSESGSGGGSTSSGTGSETESPGGSGSESGSGGPSSAGSGGSGSESGSGGSGSSGPGSTGGGSGSESGSGGPGSSGTGGTATGGSGSESGSGGPGSSGPGSTGSGGSGSESGSGGSGSSGTGSTGGGSGSESGSGGPGSPRPGSTGTGGSGSESGSGGPGSSERGSAGGGSGSESGSGGTSESSASGSTGGGSGSESGSGGSESGSGGSGSESGSGGPESPGSGGGSGSESGSGGTSGSTGGSGSESGSGGGGSGGGSGGGASSGVRLWATRQAMLGQVHEVPEGWLIFVAEQEELYVRVQNGFRKVQLEARTPLPRG

Numbering of substitutions follows the chain as printed. Numbers in names are those of the source.

The test has as its target human GLP-1 receptor (GLP-1R) (human, UniProt P43220 24-463). The test can be described thus: cell-based or functional assay.
Regarding B1, the “EC50 (nM) measured by cAMP assay” value worked out at 0.6 nM.
Next, B2: 2.1 nM; B3: 1.3 nM; B4: 1.3 nM.
Next, B5: 1.2 nM; B6: 1.3 nM.
The figure for B7 is 0.5 nM; for B8 it is 0.6 nM; for B9 it is 0.4 nM.
B10: the “EC50 (nM) measured by cAMP assay” value is 0.5 nM.
As to B11, the “EC50 (nM) measured by cAMP assay” value was 0.4 nM.
Next, B12: 2.2 nM.
Next, B13: 0.4 nM; B14: 0.5 nM; B15: 0.5 nM.
As for B16, the “EC50 (nM) measured by cAMP assay” value is 0.5 nM.
The figure for B17 is 0.6 nM; for B18 it is 0.4 nM.

The values above are taken from patent publication US10246503B2, “Method of improving the pharmacokinetic profile of a therapeutic polypeptide and the use thereof” (BEIJING ANXINHUAIDE BIOTECH. CO., LTD, priority 2012, dated 2019).
